In patent US20090202547A1 (FIBRON, published 2009):

T1: hFR3^D2Fc (human, UniProt P22607 143-250)
T1 construct: Only domain 2 of the entry stood in the assay; also called product of pChFR3^D2Fc; not shown: human Fc
T1 sequence: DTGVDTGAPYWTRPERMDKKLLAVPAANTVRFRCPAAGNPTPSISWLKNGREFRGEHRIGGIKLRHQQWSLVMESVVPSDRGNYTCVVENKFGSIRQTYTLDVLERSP

T2: FR1exFc (UniProt P11362 22-376, limits assumed)
T2 construct: extracellular domain; also called FGFR1/Fc; FR1/Fc; not shown: Fc part; the construct of FR1exFc is not described
T2 sequence (looked up): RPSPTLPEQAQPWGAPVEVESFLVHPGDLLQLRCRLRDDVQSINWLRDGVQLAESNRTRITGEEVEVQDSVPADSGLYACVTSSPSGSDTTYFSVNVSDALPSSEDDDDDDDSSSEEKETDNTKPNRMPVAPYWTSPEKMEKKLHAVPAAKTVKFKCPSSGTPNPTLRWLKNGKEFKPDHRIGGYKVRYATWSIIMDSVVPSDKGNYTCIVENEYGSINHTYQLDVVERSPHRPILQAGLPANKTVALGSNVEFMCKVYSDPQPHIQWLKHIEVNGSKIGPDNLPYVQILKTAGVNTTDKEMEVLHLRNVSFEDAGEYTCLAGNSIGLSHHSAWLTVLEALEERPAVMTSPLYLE


What was measured:
FR3exFc [1] = target: T3, FR3exFc (human); experiment: BIACORE, FGFR3 captured on an anti-Fc chip
T3 construct: also called FGFR3/Fc; FR3/Fc
Procedure: (§1) The affinity measurements were performed by BIACORE® analysis according to the standard procedure recommended by the supplier (Pharmacia). The anti-Fc antibody was coupled via the EDC/NHS chemistry to the chip and subsequently FGFR3 was captured. The Fabs of the invention were then bound to this surface.

hFR3^D2Fc = target: T1, hFR3^D2Fc; experiment: ELISA, Fc fusion anchored on an anti-human Fc coated plate, bound Fab detected with HRP anti-human Fab
From the text: Constructs comprising cDNAs that code for segments of the extracellular domain of FGFR3 were generated (FIG. 10). D2 comprises Ig domain 2, D2-3 comprises Ig domains 2 and 3, and D1-3 comprises Ig domains 1, 2 and 3. These constructs include pChFR3^D2Fc that codes for Ig-like domain 2 of FGFR3 and pChFR3^{D2,3}Fc that codes for domain 2 and 3, both as human Fc fusions. The corresponding chimeric proteins, as well as the control hFR3exFc (containing domains 1, 2 and 3) were anchored to an ELISA plate coated with a human Fc antibody. A panel of 8 best Fabs, MSPRO2, 11, 12, 21, 24, 26, 28 and 29, were added, and bound Fab was determined with HRP-α human Fab (FIG. 11). […] Both bind to the Ig like domain 2 while the others require domain 3 for binding. It was then tested whether or not Fabs that belong to the second group would distinguish the FGFR3IIIc isoform from the FGFRIIIb from. FDCP-FR3IIIb or FDCP-FR3IIIc cells were incubated in the presence of 1.25 ng/ml FGF9 with increasing doses of either MSPRO12 or MSPRO29. Ly6.3 was included as control. After 2 days in culture, cell proliferation was measured with the XTT reagent. Clearly, MSPRO29 (open triangle) was completely ineffective against the IIIb isoform (FIG. 12).

[2] = target: T4, FGFR3 (wild type) on cells (human, UniProt P22607 23-806); experiment: FACS
T4 construct: also called FDCP-FR3; FDCP-FGFR3

[3] = target: T4, FGFR3 (wild type) on cells; experiment: indirect FACS-Scatchard
FR3exFc [4] = target: T3, FR3exFc; experiment: BIACORE
Procedure: as §1

FR3exFc [5] = target: T3, FR3exFc; experiment: BIAcore; number in parentheses taken as the monomeric Fab
Procedure: as §1

FR1exFc = target: T2, FR1exFc; experiment: Affinity to FGFR1 (BIACORE and/or FACS)
[6] = target: T4, FGFR3 (wild type) on cells; experiment: cell-based or functional assay
FR3exFc [7] = target: T3, FR3exFc; experiment: BIACORE, FGFR3 captured on an anti-Fc chip; remark: listed apart in the source
Procedure: as §1

FR3exFc [8] = target: T3, FR3exFc; experiment: BIAcore, Fab-dHLX-MH miniantibody
[9] = target: T4, FGFR3 (wild type) on cells; experiment: cell-based or functional assay; remark: listed apart in the source

T3 sequence (chain, as listed by the source limits assumed): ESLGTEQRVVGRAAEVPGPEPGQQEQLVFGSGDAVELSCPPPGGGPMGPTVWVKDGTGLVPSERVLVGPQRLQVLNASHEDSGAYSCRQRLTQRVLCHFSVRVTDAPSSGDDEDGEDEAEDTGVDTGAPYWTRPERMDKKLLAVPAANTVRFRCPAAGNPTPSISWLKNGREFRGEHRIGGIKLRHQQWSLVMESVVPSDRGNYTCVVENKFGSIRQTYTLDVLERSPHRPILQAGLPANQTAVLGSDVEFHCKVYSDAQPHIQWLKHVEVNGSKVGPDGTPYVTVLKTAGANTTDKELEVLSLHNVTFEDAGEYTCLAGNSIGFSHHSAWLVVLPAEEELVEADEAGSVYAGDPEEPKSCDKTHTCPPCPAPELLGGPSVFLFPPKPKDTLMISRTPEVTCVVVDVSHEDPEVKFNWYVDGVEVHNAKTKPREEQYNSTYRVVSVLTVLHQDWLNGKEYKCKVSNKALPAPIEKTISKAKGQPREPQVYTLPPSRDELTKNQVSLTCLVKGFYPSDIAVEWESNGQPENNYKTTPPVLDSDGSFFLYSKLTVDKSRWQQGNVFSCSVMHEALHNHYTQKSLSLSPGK
T4 sequence (P22607 23-806 limits assumed): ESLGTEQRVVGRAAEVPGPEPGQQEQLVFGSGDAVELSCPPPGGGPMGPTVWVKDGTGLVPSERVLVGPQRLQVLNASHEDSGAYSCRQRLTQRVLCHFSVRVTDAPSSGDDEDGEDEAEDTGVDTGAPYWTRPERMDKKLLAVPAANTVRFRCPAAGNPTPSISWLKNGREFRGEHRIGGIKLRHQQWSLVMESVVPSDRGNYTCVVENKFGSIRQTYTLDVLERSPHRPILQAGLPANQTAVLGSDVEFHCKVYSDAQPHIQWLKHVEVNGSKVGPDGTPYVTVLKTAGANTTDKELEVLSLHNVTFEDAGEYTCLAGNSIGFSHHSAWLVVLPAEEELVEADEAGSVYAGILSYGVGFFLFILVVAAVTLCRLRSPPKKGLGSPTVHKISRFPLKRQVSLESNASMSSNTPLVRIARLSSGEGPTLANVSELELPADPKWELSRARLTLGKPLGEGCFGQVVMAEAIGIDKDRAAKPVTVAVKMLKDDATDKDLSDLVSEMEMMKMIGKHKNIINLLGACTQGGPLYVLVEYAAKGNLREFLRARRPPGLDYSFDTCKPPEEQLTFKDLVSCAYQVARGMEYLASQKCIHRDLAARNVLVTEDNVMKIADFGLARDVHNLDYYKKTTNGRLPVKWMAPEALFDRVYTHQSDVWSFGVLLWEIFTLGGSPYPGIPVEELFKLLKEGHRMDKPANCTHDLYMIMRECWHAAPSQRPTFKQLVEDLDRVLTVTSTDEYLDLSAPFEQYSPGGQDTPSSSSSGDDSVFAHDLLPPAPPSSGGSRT

| Binder | Kd (FR3exFc [1]) [nM] | binding result (hFR3^D2Fc) | Kd [2] [nM] | Kd [3] [nM] | koff (FR3exFc [4]) [s⁻¹] | Kd (FR3exFc [5]) [nM] | Kd (FR1exFc) [nM] | IC50 FR3 (FGF9), FDCP-FGFR3 proliferation assay [6] [nM] | Kd (FR3exFc [7]) [nM] | Kd (FR3exFc [8]) [nM] | IC50, FDCP-FGFR3 proliferation assay with FGF9, dimeric dHLX format [9] [nM] | IC50, FDCP-FGFR3 proliferation assay with FGF9, monomeric Fab (in parentheses) [9] [nM] |
| --- | --- | --- | --- | --- | --- | --- | --- | --- | --- | --- | --- | --- |
| MS-Pro-28-dHLX-MH (Fab, V domains shown, Fab mini-antibody format Fab-dHLX-MH, a dimer of the Fab monomer; also called MSPRO28 Fab-dHLX) VH: QVQLVQSGAEVKKPGSSVKVSCKASGGTFSSYAISWVRQAPGQGLEWMGGIIPIFGTANYAQKFQGRVTITADESTSTAYMELSSLRSEDTAVYYCARGGGWVSHGYYYLFDLWGQGTLVTVSS VL: DIQMTQSPSSLSASVGDRVTITCRASQGISSYLAWYQQKPGKAPKLLIYAASSLQSGVPSRFSGSGSGTDFTLTISSLQPEDFAVYYCFQYGSIPPTFGQGTKVEIKR |  |  |  |  |  |  |  |  |  | 1.6 |  |  |
| MSPRO55 (Fab, V domains shown) VH: QVQLVQSGAEVKKPGASVKVSCKASGYTFTSYYMHWVRQAPGQGLEWMGWINPNSGGTNYAQKFQGRVTMTRDTSISTAYMELSSLRSEDTAVYYCARSMNSTMYWYLRRVLFDHWGQGTLVTVSS VL: DIALTQPASVSGSPGQSITISCTGTSSDVGGYNYVSWYQQHPGKAPKLMIYDVSNRPSGVSNRFSGSKSGNTASLTISGLQAEDEADYYCQSYDMYNYIVFGGGTKLTVLG | 2.9 |  |  |  | 0.00074 |  |  | 34 |  |  |  |  |
| MSPRO26 (Fab, V domains shown) VH: QVQLVQSGAEVKKPGASVKVSCKASGYTFTSYYMHWVRQAPGQGLEWMGWINPNSGGTNYAQKFQGRVTMTRDTSISTAYMELSSLRSEDTAVYYCARGYWYAYFTYINYGYFDNWGQGTLVTVSS VL: DIALTQPASVSGSPGQSITISCTGTSSDVGGYNYVSWYQQHPGKAPKLMIYDVSNRPSGVSNRFSGSKSGNTASLTISGLQAEDEADYYCQSYDNNSDVVFGGGTKLTVLG | 4 | no binding | 1.4 | 1.4 | 0.0005 | 4 | 32 | 70 | 4 |  |  | 70 |
| MSPRO11 (Fab, V domains shown) VH: QVQLVQSGAEVKKPGASVKVSCKASGYTFTSYYMHWVRQAPGQGLEWMGWINPNSGGTNYAQKFQGRVTMTRDTSISTAYMELSSLRSEDTAVYYCARYYGSSLYHYVFGGFIDYWGQGTLVTVSS VL: DIALTQPASVSGSPGQSITISCTGTSSDVGGYNYVSWYQQHPGKAPKLMIYDVSNRPSGVSNRFSGSKSGNTASLTISGLQAEDEADYYCQSHHFYEVFGGGTKLTVLG | 4 | no binding | 4 | 4 | 0.0004 | 4 |  | 220 | 4 |  |  |  |
| MSPRO54 (Fab, V domains shown) VH: QVQLVQSGAEVKKPGASVKVSCKASGYTFTSYYMHWVRQAPGQGLEWMGWINPNSGGTNYAQKFQGRVTMTRDTSISTAYMELSSLRSEDTAVYYCARNMAYTNYQYVNMPHFDYWGQGTLVTVSS VL: DIELTQPPSVSVAPGQTARISCSGDALGDKYASWYQQKPGQAPVLVIYDDSDRPSGIPERFSGSNSGNTATLTISGTQAEDEADYYCQSYDYFKLVFGGGTKLTVLG | 3.7 |  |  |  | 0.002 |  | 2.5 | 45 |  |  |  |  |
| MSPRO12 (Fab, V domains shown, HuCAL Fab, framework VH2_L3) VH: QVQLKESGPALVKPTQTLTLTCTFSGFSLSTSGVGVGWIRQPPGKALEWLALIDWDDDKYYSTSLKTRLTISKDTSKNQVVLTMTNMDPVDTATYYCARYHSWYEMGYYGSTVGYMFDYWGQGTLVTVSS VL: DIELTQPPSVSVAPGQTARISCSGDALGDKYASWYQQKPGQAPVLVIYDDSDRPSGIPERFSGSNSGNTATLTISGTQAEDEADYYCQSYDFDFAVFGGGTKLTVLG | 14 |  | 6.5 | 6.5 | 0.0023 | 14 |  | 58 | 14 |  |  | 58 |
| MSPRO24 (Fab, V domains shown) VH: QVQLVQSGAEVKKPGSSVKVSCKASGGTFSSYAISWVRQAPGQGLEWMGGIIPIFGTANYAQKFQGRVTITADESTSTAYMELSSLRSEDTAVYYCARVNHWTYTFDYWGQGTLVTVSS VL: not shown | 10 | no binding |  | 0.3 | 0.0054 | 10 |  | 70 | 10 |  |  |  |

Continued, values first:

| Kd (FR3exFc [1]) [nM] | binding result (hFR3^D2Fc) | Kd [2] [nM] | Kd [3] [nM] | koff (FR3exFc [4]) [s⁻¹] | Kd (FR3exFc [5]) [nM] | Kd (FR1exFc) [nM] | IC50 FR3 (FGF9), FDCP-FGFR3 proliferation assay [6] [nM] | Kd (FR3exFc [7]) [nM] | Kd (FR3exFc [8]) [nM] | IC50, FDCP-FGFR3 proliferation assay with FGF9, dimeric dHLX format [9] [nM] | IC50, FDCP-FGFR3 proliferation assay with FGF9, monomeric Fab (in parentheses) [9] [nM] | Binder |
| --- | --- | --- | --- | --- | --- | --- | --- | --- | --- | --- | --- | --- |
| 9 | no binding | 0.3 | 0.3 | 0.004 | 9 | 160 | 50 | 9 |  |  |  | MSPRO28 (Fab, V domains shown) VH: QVQLVQSGAEVKKPGSSVKVSCKASGGTFSSYAISWVRQAPGQGLEWMGGIIPIFGTANYAQKFQGRVTITADESTSTAYMELSSLRSEDTAVYYCARGGGWVSHGYYYLFDLWGQGTLVTVSS VL: DIQMTQSPSSLSASVGDRVTITCRASQGISSYLAWYQQKPGKAPKLLIYAASSLQSGVPSRFSGSGSGTDFTLTISSLQPEDFAVYYCFQYGSIPPTFGQGTKVEIKR |
|  |  |  |  |  |  |  |  |  | 2 | 8 |  | MS-Pro-26-dHLX-MH (Fab, V domains shown, Fab mini-antibody format Fab-dHLX-MH, a dimer of the Fab monomer; also called MSPRO26 dimeric dHLX format; Fab-dHLX) VH: QVQLVQSGAEVKKPGASVKVSCKASGYTFTSYYMHWVRQAPGQGLEWMGWINPNSGGTNYAQKFQGRVTMTRDTSISTAYMELSSLRSEDTAVYYCARGYWYAYFTYINYGYFDNWGQGTLVTVSS VL: DIALTQPASVSGSPGQSITISCTGTSSDVGGYNYVSWYQQHPGKAPKLMIYDVSNRPSGVSNRFSGSKSGNTASLTISGLQAEDEADYYCQSYDNNSDVVFGGGTKLTVLG |
|  |  |  |  |  |  |  |  |  | 0.7 |  |  | MS-Pro-11-dHLX-MH (Fab, V domains shown, Fab mini-antibody format Fab-dHLX-MH, a dimer of the Fab monomer; also called MSPRO11 Fab-dHLX) VH: QVQLVQSGAEVKKPGASVKVSCKASGYTFTSYYMHWVRQAPGQGLEWMGWINPNSGGTNYAQKFQGRVTMTRDTSISTAYMELSSLRSEDTAVYYCARYYGSSLYHYVFGGFIDYWGQGTLVTVSS VL: DIALTQPASVSGSPGQSITISCTGTSSDVGGYNYVSWYQQHPGKAPKLMIYDVSNRPSGVSNRFSGSKSGNTASLTISGLQAEDEADYYCQSHHFYEVFGGGTKLTVLG |
| 1.5 |  | < 1 |  | 0.00071 |  |  | 19 |  |  |  |  | MSPRO59 (Fab, V domains shown, HuCAL Fab, framework VH6_L3) VH: QVQLQQSGPGLVKPSQTLSLTCAISGDSVSSNSAAWNWIRQSPGRGLEWLGRTYYRSKWYNDYAVSVKSRITINPDTSKNQFSLQLNSVTPEDTAVYYCARSYYPDFDYWGQGTLVTVSS VL: DIELTQPPSVSVAPGQTARISCSGDALGDKYASWYQQKPGQAPVLVIYDDSDRPSGIPERFSGSNSGNTATLTISGTQAEDEADYYCQSYDGPDLWVFGGGTKLTVLG |
|  |  |  |  |  |  |  |  |  | 2 |  |  | MS-Pro-24-dHLX-MH (Fab, V domains shown, Fab mini-antibody format Fab-dHLX-MH, a dimer of the Fab monomer; also called MSPRO24 Fab-dHLX) VH: QVQLVQSGAEVKKPGSSVKVSCKASGGTFSSYAISWVRQAPGQGLEWMGGIIPIFGTANYAQKFQGRVTITADESTSTAYMELSSLRSEDTAVYYCARVNHWTYTFDYWGQGTLVTVSS VL: not shown |
